Results reported in the DeepSol protein solubility set.

Assay: soluble on expression in E. coli; label from the status in PepcDB or PDB records

Sequence	soluble on expression in E. coli
MTKPLDGINVLDFTHVQAGPACTQMMGFLGANVIKIERRGSGDMTRGWLQDKPNVDSLYFTMFNCNKRSIELDMKTPEGKELLEQMIKKADVMVENFGPGALDRMGFTWEYIQELNPRVILASVKGYAEGHANEHLKVYENVAQCSGGAAATTGFWDGPPTVSGAALGDSNSGMHLMIGILAALEIRHKTGRGQKVAVAMQDAVLNLVRIKLRDQQRLERTGILAEYPQAQPNFAFDRDGNPLSFDNITSVPRGGNAGGGGQPGWMLKCKGWETDADSYVYFTIAANMWPQICDMIDKPEWKDDPAYNTFEGRVDKLMDIFSFIETKFADKDKFEVTEWAAQYGIPCGPVMSMKELAHDPSLQKVGTVVEVVDEIRGNHLTVGAPFKFSGFQPEITRAPLLGEHTDEVLKELGLDDAKIKELHAKQVV	soluble
MGSDKIHHHHHHMRRSSLKEPGPASAIRTENFTRGMGEVPAALGKVCRGGSHAKAHERGLIMLISQILDDAETIRVVARNGGKTRIINGARSVYSLAMEAARTGVGLATLIERKGLGETVDLDAAYKKGRLLSPINHPDPAHLHLTGTGLTHLGSAATRDSMHKKLSSADGEEQLTDSMKMFRMGLEGGKPAKGQVGVQPEWFYKGNGTMAVAPGAALLSPAFAKDAGEEPEIAGIYVIGDDGAPFRVGFTLSNEFSDHVTERVNYLFLAHSKLRNASFGPEILIGDLPSDIRGTSRIVRDGETLWEKPFLSGEANMSHTIANLEHHHFKYSAFRQPGDVHVHMFGTATLSFADGVKTEAGDVFEIEAGDFGLPLRNPLEIEKPVKVAVKAL	not soluble
MRTVEVVGRGPAVDALAAFLADIDVSVAQPSTPADSSGDLAIVVDTVGSERFAAWNDRAKDDAIPWVAVELGGVGGVPVTDAAISGFGPETGCFDCLRTRVEATVDDTEEVTGAPAAATQRFAGALAGRLVTQFLDGDAALLGTVTELPHTQRRFLPVPGCDCGGTQGHSLGDGRQTAPDSEALSRAELGLDDRVGIATEVGEVESFPAPYYLSTLADTAGFSDVSAAAKAAGVAIDWDTAFMKALGENYERYAAGVYREGNLQHGTVADVPAAVTPDTFVRDEAEWDESHALPWVPAENLLTDEQRSLPAETVHYPPPSNAVRPATTTGLGLGNTVTEALLTGLYEVIERDAAMLSWYSTFDPLRVAIDEHEQYETLRRRATSEGLDVTALLLTQDVDVPVITVALAQDEWPRFALGTDADLNPGAAAVGALEEALQNWMELDSMGPEAAMDAQGAIGRYAKSPGEAADLTASETAVPLDSLGPDVDLSGEAELETLCDRAADAGLAPYGTRLTTRDLEQLGFEAVRVVCPSAQPLFFGESFFGERAETVPADLGFEPRLDRDHHPFP	soluble
MSEQYTTGVVVTGKVTGIQDYGAFVALDAETQGLVHISEITNGYVKDIHDFLKVGDTVEVKVLSIDEEHRKMSLSLKAAKRKQGRILIPNPSENGFNTLREKLTEWIEESELTK	not soluble
MAHHHHHHMLKFRERLSKNCLPAFNLELVYQCAERALEEELNETCSAAKCVPMSGISERIFVGTWRDAADEKLLRQMCITHTLNVARELVDTEEMHRVESVPFVTSKSIPLSDSLDEDIVHHFEDAFEFIRGATRNGRILVYCRRGMSRSAAIVVAYLMESEGMSFCDAHNDVKDKRPCISLNLAFLQRLQEYEEHLEKVRAAARTN	not soluble
RALCDEDMKKVFTRLPSSSAIPLAVRRAQDMFVLMFLLRGLPFVDLAYLRKSDLRDNVITYRRRKTGRPLSVTLTPEALELLKKYMNRDSHSPYLFSLLKSGEGTKEAYREYQLALRSFNQQLTLLGEVLGLNDKLSSYTARHTWATTAYYCEIHPGIISEAMGHSSIKVTETYLKPFRNKKIDEANNQIIDFVKHSIAGVVS	not soluble
AEMKNLKIEVVRYNPEVDTAPHSAFYEVPYDATTSLLDALGYIKDNLAPDLSYRWSCRMAICGSCGMMVNNVPKLACKTFLRDYTDGMKVEALANFPIERDLVVDMTHFIESLEAIKPYIIGNSRTADQGTNIQTPAQMAKYHQFSGCINCGLCYAACPQFGLNPEFIGPAAITLAHRYNEDSRDHGKKERMAQLNSQNGVWSCTFVGYCSEVCPKHVDPAAAIQQGKVESSKDFLIATLKPR	soluble
MKLSRRSFMKANAVAAAAAAAGLSVPGVARAVVGQQEAIKWDKAPCRFCGTGCGVLVGTQQGRVVACQGDPDAPVNRGLNCIKGYFLPKIMYGKDRLTQPLLRMKNGKYDKEGEFTPITWDQAFDVMEEKFKTALKEKGPESIGMFGSGQWTIWEGYAASKLFKAGFRSNNIDPNARHCMASAVVGFMRTFGMDEPMGCYDDIEQADAFVLWGANMAEMHPILWSRITNRRLSNQNVTVAVLSTYQHRSFELADNGIIFTPQSDLVILNYIANYIIQNNAINQDFFSKHVNLRKGATDIGYGLRPTHPLEKAAKNPGSDASEPMSFEDYKAFVAEYTLEKTAEMTGVPKDQLEQLAQLYADPNKKVISYWTMGFNQHTRGVWANNLVYNLHLLTGKISQPGCGPFSLTGQPSACGTAREVGTFAHRLPADMVVTNEKHRDICEKKWNIPSGTIPAKIGLHAVAQDRALKDGKLNVYWTMCTNNMQAGPNINEERMPGWRDPRNFIIVSDPYPTVSALAADLILPTAMWVEKEGAYGNAERRTQFWRQQVQAPGEAKSDLWQLVQFSRRFKTEEVWPEDLLAKKPELRGKTLYEVLYATPEVSKFPVSELAEDQLNDESRELGFYLQKGLFEEYAWFGRGHGHDLAPFDDYHKARGLRWPVVNGKETQWRYSEGNDPYVKAGEGYKFYGKPDGKAVIFALPFEPAAEAPDEEYDLWLSTGRVLEHWHTGSMTRRVPELHRAFPEAVLFIHPLDAKARDLRRGDKVKVVSRRGEVISIVETRGRNRPPQGLVYMPFFDAAQLVNKLTLDATDPLSKETDFKKCAVKLEKV	not soluble
MGSDKIHHHHHHMGLAFEHVTLGQRVLFGTGTAAPSLASEVARLGARRVMVITSNRARETAYRIAADVEVALWHHDVAMHVPIETARKARAAAGEHGIDLLVCVGGGSTTGLAKAIAMTLRLPIIAVPTTYAGSEATNVWGLTEASRKTTGVDDAVLPVTVIYDAALTLALPVAMSVASGLNGIAHCIDSMWAPGADPINAALGAEGIRALSHGLPLIAEDPAGTEGREQALYGAYLSAVAFASAGSGLHHKICHVLGGAFNLPHAQVHATVLPYVLAFNAPYASDSEARIAAAFGTADALTGLQELRNRLDAPKALSDYGLTADGAAEAAAVVQPTVPASNPRPVTTENLTRLLQAALSGEDPRCLLEH	not soluble
MWSFRAWRRRRLLARHPVAEELWQRVRRHLPILDGLDADEDRRLRERAVLFLADKHLTALAGVDLDDFGRLLLAAQAQLPLLHLPELNWYQGFHELVLYPDDFVSPQKHRDASGVVHEFDDERSGETSLQGPVVLAWPGVVGGGGWDAYNLVIHELAHKLDMLNGDANGLPPLHAGMRIGDWASAMQAAYDEMNALLDRDPDAQTAIDPYAAEDPAEFFAVTSEYFFTAPDLLHEAYPAVYRQLQLFYRQDPLQRLRRLQAEHPDYREAAGDTTNG	not soluble
MGSDKIHHHHHHMDRIIEKLDHGWWVVSHEQKLWLPKGELPYGEAANFDLVGQRALQIGEWQGEPVWLVQQQRRHDMGSVRQVIDLDVGLFQLAGRGVQLAEFYRSHKYCGYCGHEMYPSKTEWAMLCSHCRERYYPQIAPCIIVAIRRDDSILLAQHTRHRNGVHTVLAGFVEVGETLEQAVAREVMEESGIKVKNLRYVTSQPWPFPQSLMTAFMAEYDSGDIVIDPKELLEANWYRYDDLPLLPPPGTVARRLIEDTVAMCRAEYE	soluble
MSLANIKEIARLANVSVSTVSRVLNHHPYVSEEKRKLVHQVMKELDYTPNRTAIDLIRGKTHTVGVILPYSDHPCFDKIVNGITKAAFQHEYATTLLPTNYNPDIEIKYLELLRTKKIDGLIITSRANHWDSILAYQEYGPVIACEDTGDIDVPCAFNDRKTAYAESFRYLKSRGHENIAFTCVREADRSPSTADKAAAYKAVCGRLEDRHMLSGCNDMNDGELAAEHFYMSGRVPTAIYANSDEVAAGIHLFAKKNNWDVEIIGEGNTSISRVLGFPSLDLNLEQLGIAAFSLFLQDEPADIKIQHKFKKKAEGHHHHHH	soluble
MAHHHHHHMEGVSNILSIAGSDSCGGAGIQADIKTAMGLGCHCCTALVVLTAQNTKEVKRIVEIEEAFIVDQLDSIFADVTIDVVKLGVLYSKKIISLVSQYIVQMNKKRGKKLLVVFDPVFVSSSGCLLVENLEYIKFALDLICPISCIITPNFYECKVILQALDCQMDLSKANMTELCKLVTRMLDINACLLKSCNVGENSAEENEVYAVDHLCIRKVGSIPEGEVIQRDAGELGQSAPGGVTYLYDVYKLRSKRKPGVDVHGTGCTLSTAIACYLAKKHNILQSCIESKKYIYNCIRYAYPFGSKSQGLNHLKASQELPTFTDLEVIPIVQDSP	soluble
MSLKAIFWDMDGTMVDSEPQWGIATYELSEAMGRRLTPELRELTVGSSLPRTMRLCAEHAGITLSDADYERYRAGMFARVHELFDESLVPNPGVTELLTELKALEIPMLVTTNTERDLATRSVAAVGNEFFIGSIAGDEVPTAKPAPDMYLEAARRVGFDPSECLVFEDSYNGMLGAVTAGCRVIGLHPEEVQAPEGVVPLRSLHGKNSFEGVTAEMVTAWYHQIEPAGVAKEGHHHHHH	soluble
MAFANLRKVLISDSLDPCCRKILQDGGLQVVEKQNLSKEELIAELQDCEGLIVRSATKVTADVINAAEKLQVVGRAGTGVDNVDLEAATRKGILVMNTPNGNSLSAAELTCGMIMCLARQIPQATASMKDGKWERKKFMGTELNGKTLGILGLGRIGREVATRMQSFGMKTIGYDPIISPEVSASFGVQQLPLEEIWPLCDFITVHTPLLPSTTGLLNDNTFAQCKKGVRVVNCARGGIVDEGALLRALQSGQCAGAALDVFTEEPPRDRALVDHENVISCPHLGASTKEAQSRCGEEIAVQFVDMVKGKSLTGVVNAQALTSAFSPHTKPWIGLAEALGTLMRAWAGSPKGTIQVITQGTSLKNAGNCLSPAVIVGLLKEASKQADVNLVNAKLLVKEAGLNVTTSHSPAAPGEQGFGECLLAVALAGAPYQAVGLVQGTTPVLQGLNGAVFRPEVPLRRDLPLLLFRTQTSDPAMLPTMIGLLAEAGVRLLSYQTSLVSDGETWHVMGISSLLPSLEAWKQHVTEAFQFHF	soluble
NNSQFFMGIPRLKFPADAPSRSTLKLEEAFHVFIPRDEWDERLAPGMWGVDLGACPGGWTYQLVKRSMFVHCVDNGMMADSLMETGQIKHHMVDGFKFEPDRKNVTWIVCDMVEKPARVAHLMGQWLLKGWAKEAIFNLKLPMKGRYDEVLQDLENLKMFLIENKVKFKLQAKHLYHDREEITIHIQCLSNISPH	not soluble
MAHHHHHHMTAKSPCLDILPFIFREEQISNRIQTFPTETMKKAYLELKGYFEQYKIYAEKLINFSGSMNDENQRKEKLIIKLRCEYYAVIFSQASKLLHEYINFRNRLILELAINVNGLINSIHPNIIQRLNEDEQKELQKYCENIRSERTRSKLQNKFTVCFLNDLIIEDLNYEGVQKDMKGRNVFYSAGLKVSVFEDKALDLQKCEWAKILRD	not soluble
NKDLLWTTSLNIGHNKNKLTKLDGEQQEIISGVSIHRVGQPYYSIYAYEYAGVDPQTGKELYYINGEDGSRETTTNSAAANKTIIGSIEPKVQGGLTNYVSWKFIDFNLTLTYSLGGHAYDYATWLQSNGGTYHYLGNVPAYYKMEDTWQKTGDNAKLPQFAYGNANKASSRWLMSTDHLRVKNMTLGFTLPQSWSSKAGISKLRAYVSGNNLLTWKKKSLYVDPEVPVDGLCTFETPALRTVTFGLEIGF	not soluble
